Data set [1] concerns ScNsrR D8A, [4Fe-4S] (Streptomyces coelicolor). Nature of the data set: EMSA. Conditions: EMSA: 10 mM Tris, 54 mM KCl, 0.3% glycerol, 1.32 mM glutathione, pH 7.2, on ice ~10 min; 5% PAGE in 1x TBE.
For data set [2], the system named is ScNsrR D8C, [4Fe-4S] (Streptomyces coelicolor). Nature of the data set: EMSA. Particulars: EMSA: 10 mM Tris, 54 mM KCl, 0.3% glycerol, 1.32 mM glutathione, pH 7.2, on ice ~10 min; 5% PAGE in 1x TBE.

On to hmpA1 promoter probe, for which the K half ([4Fe-4S] protein:DNA ratio) was > 20 in data set [1] and 20 in data set [2].

(Values after PMC5411485.)
